Results on 41 sequences are retold here after the nanobody polyreactivity screen of Harvey et al. (2022).

A short description of the series: yeast display, Sf9 membrane polyspecificity reagent, FACS + sequencing; frameworks hold sequencing errors. An outline of the steps: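 Galactose induction of a Saccharomyces cerevisiae BJ5465 synthetic nanobody display library ran 36–48 hours. The cells were then stained for 1 hour at 4 °C with 10% biotinylated, detergent-solubilized Sf9 membrane reagent, pulled down on streptavidin microbeads and FACS-sorted into low and high (top ~1%) gates on expression and reagent-binding fluorescence. Labels for polyreactivity follow the gate of origin.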
For “QVQRVESGGGLVQAGGSLRLSCAASGRTSYYNTMGWYRQAPGKEMELVAAITGRGDSTYYADSVKGRFTISRDNAKNTVYLQMNSLKPEDTAVYYCADDELHLLYRVSKFVDYNHWGQGTQVTVSS”, the “polyreactivity (PSR sort gate)” value is recorded as “low polyreactivity”. Turning to “QVQRVESGGGLVQAGGSLRLSCAASGSIFGPYAMVWYRQAPGKERELVAAITWSVGSTYYADSVKGRFTISRDNAKTTVYLQMNSLKPEDTAVYYCNAGVLGVYTSYNGDDYWGQGTQVTVSS”, the “polyreactivity (PSR sort gate)” value was “low polyreactivity”. As for “QVQRVESGGGLVQAGGSLRLSCAASGSIFNPYAMGWYRQARGKVRELGAAISKSGTSTSYADSRKGRFTISRDNAKNTVYLQMNSLKPEDTAVYYCAVQVRRRYNYWGQGTQETVSS”, the “polyreactivity (PSR sort gate)” value is reported as “high polyreactivity”. Under “QVQRVESGGGLVQAGGSLRLSCAASGSIFSIYAMGWNRQAPGKEMEFVAAIDSGTSTTYADSVKGRFTISRDNAKNTVYLQMNSLKPEDTAVYYCAAALYSDVAAVSTYGYYWGQGTQVTVSS” stands “low polyreactivity”; under “QVQRVESGGGLVQAGGSLRLSCAASGSIFTGNAMGWYRQAPGKEREFVAAIRRSGA”, “low polyreactivity”.

Take “QVQRVESGGGLVQAGGSLRLSCAASGSIFTSNVRGWYRQAPGKERELDAAITITGTTNYADSVKGRFTISRDNAKNTVYFQMNRLKPEDTAVYYCAKDPVELSPADWRADYDYWGQGSQVTVSS”: the “polyreactivity (PSR sort gate)” value is “low polyreactivity”.

Take “QVQRVESGGGLVQAGGSLRLSCAASGSTFIGYDMRWYRQAPGTERELVAAISYSDGTYYADSVKGRFTISRDNAKNTVYLQMNSLKPADTAVYYCAADSLYYRYDYWGQGPQVTVSS”: the “polyreactivity (PSR sort gate)” value is recorded as “low polyreactivity”.

For the sequence “QVQRVESGGGLVQAGGSLRLSCAASGSTFRRYTMGWYRQAPGKERELVAAITYRGSSTYYADSVKGRFTISRDNAKNTVYLQMNSLKPEDTAVYYCAADARYTGYYYWGQGTQVTVSS”, the “polyreactivity (PSR sort gate)” value was “high polyreactivity”. Then “QVQRVESGGGLVQAGGSLRLSCAASGSTFYAYAMGWYRQSPGKERELVATITWSGGSTFYADSVKGRFTISRDNAKNTVYLQMNSLKPEDTAVYYCAARSRFPTIADGDYWGQGTQVTVSS”, with “low polyreactivity”. “QVQRVESGGGLVQAGGSLRLSCAASGSTFYDNTMGWYRPAPGKERELVAAITGTGGNTYYADSVKGRFTISRDNAKNTDYLQMNSLKPEDTAVYYWNRVPVYYYRYGYWGQGTQVTVSS”: the “polyreactivity (PSR sort gate)” value was “low polyreactivity”.

As to “QVQRVESGGGLVQAGGSLRLSCAASGSTLVYNDMGWYRPAPGKEREFVAAIRSNDGSTYYADSVKGRFTISRDNAKNTVYLQMNSLKPEDTAVYYCNKDVWDGYDWPEFDYSGQGTQVTVSS”, the “polyreactivity (PSR sort gate)” value is listed as “low polyreactivity”.

Take “QVQRVESGGGLVQAGGSLRLSCAPSAIIIYYYAMGCYRQAPGNEMELVAGISYSGGSTYADSVKGRLTISRDNAKNTVYLQMNSLKPEDTAVYFCAADYDYGGHWYDYWGQGTQVTVSS”: the “polyreactivity (PSR sort gate)” value is recorded as “low polyreactivity”. Take “QVQRVESGGGLVQAGGSLRLSCAPSGRTFGYYAMGWYRQAPGKERELVAAISRGGRTNYADSVKGRFTISRDNAKNTVYLQMNSLQPEDTAVYYCAKSGTIPRYTASYSLLDYWGQGTQVTVSS”: the “polyreactivity (PSR sort gate)” value is “low polyreactivity”. For the sequence “QVQRVESGGGLVQAGGSLRLSCPASGSTLYGYAMGWYRPSPGKERELVAGITRGGSTSYADSEKGRFTISRDNAKNTVYLQMNSLKPEDTAVYYCAARSYPGSPVRYDYWGQGTQVTVSS”, the “polyreactivity (PSR sort gate)” value is given as “high polyreactivity”.

For the sequence “QVQRVESGGGLVQAGGSLRLSFAAAGGILYPYAMGWYRQAPGKERELVAAITSSGSTYYADSVKGRFTISRDNAKITVYLQMNSLNPEDHAVYYCAITLPTRNKLRSGREYDYWGQGTQVTVSS”, the “polyreactivity (PSR sort gate)” value is given as “low polyreactivity”. Then “QVQRVESGGGLVQAGGSLRLSSAASGPIYGDYAMGWYRQEPGKERELVADITWSGGSTYYADSVKGRFTISRDNAKNTVYLQMNSLKPEDTAVYYCNADVWFYYTFDYWGLGTQVTVSS”, with “low polyreactivity”. Under “QVQRVESGGGLVQAGGSLRLSSAASGSIFFDYAMRGYRQAPGNERELVAAISGSGGSRYYADSVKGRFTISRDNAKNTVYLQMNSLIPEDTAVYYCAAGYKYFRIRYDYWGQGTQVTVSS” stands “high polyreactivity”; under “QVQRVESGGGLVQAGVSLRLSCASSGITFDVNALGWYRQAPGKERELVAAITAGGNTYYADSVKGRFTISRDKAKTTVYLQMNSLKPEETAVYYCAAVSTSLYWAGYDYWGQGTQVTVSS”, “low polyreactivity”; under “QVQRVESGGGLVQARGSLRLSCAASGLIFPPNVMGWYRQAPGKESEFVAAITSSGSTNYADSVKGRFTISRDNAKYTVYIQMNSLKPEDTAVYYCARDQTWSYQPWYYLSYPQYEYWGQGTEVTVSS”, “low polyreactivity”. Then “QVQRVESGGGLVQAVGSLRLSCPASGIISVCNARGWYRQAPGKERELVASINSGGSTNYADSVKGRFTISRDNAKNTVYLQMNSLKPEDTAVYYCARLHDIRSPYSGTPVRDLPDEDDYWGQGTQVTVSS”, with “low polyreactivity”. Turning to “QVQRVESGGRLVPPGGSLRLSCAASGRIFYTNAMGCYRQAPGKERELVARITGAGNTYYADSVKGRFTISRDNAKNTVYLQLNSLKPEDTAVYYCTADLYWRGDYWGQGTQVTVSS”, the “polyreactivity (PSR sort gate)” value is listed as “high polyreactivity”.

Regarding “QVQRVESRGVLVQAGGTLRLSCAASGISFGRNTMGWYRQAPLKERELVATIRSGTNYADSVKGRFTISRDNAKNTVDLQMNSLKPDDTAVDYCAVRYFGGRRSYYWGQGSQVTVSS”, the “polyreactivity (PSR sort gate)” value was “high polyreactivity”. Under “QVQRVESVGGLVQAGGSLRLICAASGRIFQVNAIGWYRQAPGKERELVAAITYSGGTTYYADSVKGRFTISRDNAKNTVYLQMNSLKPEDTAVYYCAAEGYGALGDPWQYGYEYWGQGTQVTVSS” stands “low polyreactivity”; under “QVQRVETAGRLVQARGSLRLSCAPSGIIFKRNAIGWYRQAPGKEREFVAAISSSGDTTYYADSVKGRFTISRDNAKNTVYLQMNSLKPEDTAVYYCAKPIRTSRARGMYYWGQGTEVTVSS”, “high polyreactivity”. Under “QVQRVVSGGGLVQAGGSLRLSCAASGSIFQGNAMGWYRQAPGQERELVAAIHRSDGRTYYADSVKGRFTISRDNAKNTVYLQMNSLKPEDTAVYYCKVDVLLVHDYVFYSWMDYWGQGSQVTVSS” stands “high polyreactivity”.

In the case of “QVQVEDTGGGLVQEGGSHRLSCAASGRTFYYYTMGRYRQPPVKEREFVAAITISGARTYYADSVKGRFTISRDNAKNTVYLQMNSLKPEDTPVYYCAARRRYRSRVTTVGYNYWGQGTQVTVSS”, the “polyreactivity (PSR sort gate)” value is “high polyreactivity”. Then “QVQVESGGGLVQAGGSLRLSCAASGSIIDQYVMGWYRQAPGKERELVAAISRGGRTYYADSVKGRFTISRDNAKNTVYLQMNSLKPEDTAVYYCAARSDVRGFDYWGQGTQVTVSS”, with “low polyreactivity”; and “QVQVVESGAGLVQAGGSLRISCAASGRNFVANAMGWYRQAPGKERELVAAISIIGAGTYYADSVKGRFTISRDNAKITVYLQMNSLKPEDTAVYYCATQYGWYIFGYWGQGSQVTVSS”, with “high polyreactivity”; and “QVQVVESGGALVQAGGSLRLSCAASGRIFSPYAMGWYRQAPGKESELVAAITSASSTYYADSVKGRFTISRDNAKNTVYLEMNRLKPEDTAVYYCAASYWRYGSAFDYWGQGTQVTVSS”, with “high polyreactivity”.

With “QVQVVESGGGILQAGGSLRLSCAASGSIFYTNAMGWYRQAPGKERELVAAINLRDTGTYYADSVKGRFTISRDNAKNTVYLQMNSLNPDDTAVYYCAVDVYSRRTRIRYDSWGHGTQVTVSS”, the “polyreactivity (PSR sort gate)” value was “low polyreactivity”. With “QVQVVESGGGIVQAGGSLRLSCAASGFIFNGNAMGWYRQAPGKERELVAADSVKGRFTISRDNAKNSVYLQMNRLKPEDTAVYYCATEFWQASDYDYWGHGTQVTVSS”, the “polyreactivity (PSR sort gate)” value is reported as “low polyreactivity”.

As for “QVQVVESGGGLDNAGGSLGLSCAASGSIFYYNAMGWYRQAPGKERELVAAISSSGGSTYYADSVKGRFTISRDNAKNTVYLQMNSLKPEDTAVYYCAAKLRHWAHHTKYDYWGQGTQVTVSS”, the “polyreactivity (PSR sort gate)” value is listed as “low polyreactivity”. In the case of “QVQVVESGGGLVQAGGSLRLICAASGSTSWSYAMGWYRQAPGKERELVAAITRTGSTNYADSVKGRFTISRDNAKNTVYLQMNSLKPEDTAVYYCVYATLRYDYWGQGTQVTVSS”, the “polyreactivity (PSR sort gate)” value was “low polyreactivity”.

In the case of “QVQVVESGGGLVQAGGSLRLSCAASGFIFRTYTMGWYRQAPGKERELVAAISYRGSSTYYADSVKGRFTISRDNAKNTVYFLMNSLKPEDTADYYCAAQLYGHRGYYWGQGTQVTVSS”, the “polyreactivity (PSR sort gate)” value is “high polyreactivity”. Then “QVQVVESGGGLVQAGGSLRLSCAASGFIIKDNAMGWYRQAPGKERELVAAITASGGRTYYADSVKGRFTISRDNAKNTVYLQMNSLKPEDTAVYYCAKRVKRPSESYNYNYYYWGQGTQVTVSS”, with “high polyreactivity”; and “QVQVVESGGGLVQAGGSLRLSCAASGRIYQYYDMGWYRQAPGKERELVATITSGGSTNYADSVKGRFTISRDNAKNTVYLQMNSLKPEDTAVYYCAALAYTASDYQPYDATEYNYWGQGTQVTVSS”, with “low polyreactivity”; and “QVQVVESGGGLVQAGGSLRLSCAASGRTFTRYAMGWYRQAPGKERELVATITRGGSTNYADSVKGRFTISRDNAKNTVYLQMNSLKPEDTAVYYCAAGYFIRTRSRYRYDYWGQGTQVTVSS”, with “high polyreactivity”. Then “QVQVVESGGGLVQAGGSLRLSCAASGSFFTRYAIGWYRQAPGKERELVAAISGSGGSTYYADSVKGLFTISRDNAKITVSLQMNSLKPEDTAVYYCAARDYWGQGTQVTVSS”, with “high polyreactivity”. Under “QVQVVESGGGLVQAGGSLRLSCAASGSIFGGYTMGWYRQAHGNERELVAGITISGGSTYYADSVKGRFTISRDTAKNTVYLQMNSLKPEDTAVYYCAAVSFVVSSWGYGYWGQGTQVTVSS” stands “low polyreactivity”; under “QVQVVESGGGLVQAGGSLRLSCAASGSIFHAYTMGWSRQAPGKERELVAAISRGDRTYYADSVKGRFTISRDNAKNTVSLQMNSLKPEDTAVYYCNRDRYRYDSWGQGTQLTVSS”, “high polyreactivity”; under “QVQVVESGGGLVQAGGSLRLSCAASGSIFNQYAMGWHRQAPGKERELVAAISSDGGRTYYADSVKGRFTISRDNAKNTVYLQMNSLKPEDTAVYYCNADFPAYGLQGDDYWGQGTQVTVSS”, “low polyreactivity”.
